Article PMC9282857
Each block holds one substance with its values, some of them ahead of it.

Legend:
Assay in all cases: ITC; Affinity-ITC calorimeter, 25°C; 20 mM Tris-HCl pH 7.5, 150 mM NaCl, 1 mM DTT; independent binding model
[1] = target: Rsp5 WW1-HECT domain (224-809) (S. cerevisiae) (UniProt P39940)
[2] = target: Rsp5 HECT domain (444-809) (S. cerevisiae) (UniProt P39940)
[3] = target: Pub1 (287-767) (S. pombe) (UniProt Q92462)
pub1-F576A (S. pombe) = pub1-F576A (S. pombe) (UniProt Q92462)

Substance: Art1 PY motifs containing region (661-710) (domain or fragment)
Kd [1]: 3600 nM

Kd [2]: 120000 nM
Substance: K63 di-Ub with a distal end ubiquitin mutant (I44A) (from UniProt P0CG63 1-76; P0CG63 1-76) (complex)

Kd [3]: 2100 nM
Substance: Any1 (17-361) (natural protein)

fold enhancement of binding against non-conjugated Any1 [3]: 8 fold
Kd (pub1-F576A (S. pombe)): 2300 nM
Substance: Any1 conjugated with K63 di-Ub (from UniProt P0CG63 1-76; P0CG63 1-76) (complex)
